Literature values as cited in article PMC3648593.

Molecular target: Met (Homo sapiens) (UniProt P08581)
UniProt P08581, sequence (P08581 25-932): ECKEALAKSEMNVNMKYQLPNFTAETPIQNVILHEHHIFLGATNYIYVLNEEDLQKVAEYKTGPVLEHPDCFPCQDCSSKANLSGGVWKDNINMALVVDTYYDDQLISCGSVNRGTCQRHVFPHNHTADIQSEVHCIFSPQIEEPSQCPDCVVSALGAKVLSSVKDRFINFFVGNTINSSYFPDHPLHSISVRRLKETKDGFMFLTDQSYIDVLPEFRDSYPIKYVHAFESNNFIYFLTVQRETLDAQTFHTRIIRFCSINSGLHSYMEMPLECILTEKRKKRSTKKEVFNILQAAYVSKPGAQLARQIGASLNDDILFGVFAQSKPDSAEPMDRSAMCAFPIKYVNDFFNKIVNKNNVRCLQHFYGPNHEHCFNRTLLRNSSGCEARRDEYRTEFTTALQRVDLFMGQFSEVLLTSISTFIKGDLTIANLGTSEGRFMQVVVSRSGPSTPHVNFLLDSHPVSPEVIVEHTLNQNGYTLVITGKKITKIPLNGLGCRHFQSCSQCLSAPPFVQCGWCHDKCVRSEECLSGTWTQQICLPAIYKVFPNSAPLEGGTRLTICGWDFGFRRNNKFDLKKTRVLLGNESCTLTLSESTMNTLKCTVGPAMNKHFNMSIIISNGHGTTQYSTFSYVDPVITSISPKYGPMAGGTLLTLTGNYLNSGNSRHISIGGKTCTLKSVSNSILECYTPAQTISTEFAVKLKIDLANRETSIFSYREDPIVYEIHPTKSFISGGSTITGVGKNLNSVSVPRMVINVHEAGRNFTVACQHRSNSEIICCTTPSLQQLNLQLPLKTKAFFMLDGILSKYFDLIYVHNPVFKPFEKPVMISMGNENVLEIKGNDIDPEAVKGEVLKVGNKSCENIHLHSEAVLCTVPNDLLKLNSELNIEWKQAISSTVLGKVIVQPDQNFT

## Decorin (from UniProt P07585)
  Kd: 2 nM
